Measured values reported in PMC12460815.
Several values for one entry are separate records, joined by “and”; a condition that tells them apart may be missing. Identical values can stand only once.

Experiments:
[1] = target: recombinant Ser 255 mutation FGF2 (UniProt P09038); test: gel electrophoresis under non-denaturing conditions; recombinant FGF2 under non-denaturing conditions, compared with denaturation at 95 °C
[2] = target: recombinant wild-type FGF2 (UniProt P09038); test: as above

Row | stoichiometry N [1] | stoichiometry N [2] | Substance
1 | 2 and 4 |  | recombinant Ser 255 mutation FGF2 (from UniProt P09038 1-288) (natural protein)
2 |  | 2 and 4 | recombinant wild-type FGF2 (from UniProt P09038 1-288) (natural protein)
